{"source": "paper PMC2780292", "about": "“Structural Requirements for PACSIN/Syndapin Operation during Zebrafish Embryonic Notochord Development” (PLoS ONE, 2009)", "biological_target": "the molecule itself", "assay": "crystal structure; selenomethionine SAD, 2.7 Å; crystals from 17% PEG 3350, 0.1 M disodium phosphate, hanging drop; two molecules in the asymmetric unit"}
{"protein": "Drosophila Syndapin N-terminal EFC domain (domain or fragment, Drosophila melanogaster, selenomethionine-substituted, the model holds residues 14-303 (chain A, 169-188 missing) and 14-298 (chain B); The fragment arose from full-length Syndapin during crystallization; Antiparallel homodimer; also called Syndapin EFC domain; Syndapin EFC dimer; source: crystals contained only the EFC domain) SDSFWEPGNYKRTTKRIEDGYKLCNDLQQLIQERADIEKGYAKSLRTWSKKWGELIEKGPEYGTTEAAWKGVLTESERISDVHMKIKDNLCNDVNSQIKTWQKENYHHTLMQIKERKDLEDLFKKAQKPWAKLLAKVEKAKADYHSACKTERSATNQERNANADSSLSPDQVKKMHDRVQKTKDQVQKCREKYEQAIAEITKYNSVYIEDMTSVFEKCQTFEKTRLQFFKEILFNVHSCLDLTKVQSLPQIYEEFSHTINNADQQKDLKWWSNNHGINMAMNWPSFVEYT", "values": [{"measurement": "stoichiometry N", "value": 2}]}
